The target of the test is ζ subunit (F420-reductase subunit) of the CODH component of the ACDS from Candidatus Ethanoperedens thermophilum (Candidatus Ethanoperedens thermophilum). Put plainly: crystal structure; α2ε2ζ2 ACDS subcomplex purified natively as one complex; sitting drop, anaerobic, 20 °C, 20% PEG 6000, 100 mM MES pH 6.0, 200 mM ammonium chloride, 1 mM FAD and FMN added; refined to 1.89 Å.

What is called stoichiometry N is the number of molecules, sites or subunits per partner or assembly. “ζ subunit (F420-reductase subunit) of the CODH component of the ACDS from Candidatus Ethanoperedens thermophilum (natural protein)” came in with a stoichiometry N of 2.

These data come from article PMC11493965, “Ethane-oxidising archaea couple CO2 generation to F420 reduction” (Nature Communications, 2024).
